Source: the DeepSol protein solubility set

Assay: soluble on expression in E. coli; label from the status in PepcDB or PDB records

| Sequence | soluble on expression in E. coli |
| --- | --- |
| GKDAHVILRSNFTLSKNKILNWEDTKKPYTYLENNGYANNVQRGFVAMGLFKDQQDVEMSPTQFGTVRPGDIKYRDINGDGKITDDDKVPLFAYSGVPQLMYGIGAEFRYKSWTLNVLFKGTGRNKFLYGGSDGRNFDGYMPFNQKDKGNIMTIAYNPENRWISAEYSGNQATENPNARFPRLYYGKNENNTKPSTFWMGDARYLRLQELSLAYNLKVPALQRILGINSMNIQLMCENLAVWDSVNIFDPEQATSCGQAYPLPARYSLQLYLNF | not soluble |
| MGSSHHHHHHSSGRENLYFQGMNDSIHGGLRVCQSTPLVQLQDRGRFGCRHLGVTQGGALDWLSMGWANWLLGNPLDAAVIEIALGGFVADCRADGWLALAGGDLGATLDGQPLPAWGAFAVRGGQRLAFAHPRQGARAYLAAPGGFAGERQLGSLATVAREGLGGPRADGKALAAGDSLGWLADGARPRALPLPSERIMDCTGEARLELILGAQIGDFPAMSLFDAFNGDWQVDTRADRMGVRLLGPRLECRQQSMISEGIALGAVQVPPDGQPIVLLNDRQTIGGYPRLGALAPLALARLAQCLPGQRVRLLPTVQEAAHREHRRLLAAWDA | soluble |
| MTDGSMDIDAMLEGGLEMAKNDRSQSRQRSPARSNRSRSRSKDRKSSSRRSRSRSRDRRGDRGDRRRSRSRSKDRRTTRRRSPSRERRRSRSRDRGAPRRRSRTRSRDRRRSPPRRRDRRTPPRRSPGRRSPPRSRLPGPERRDVMPFNPRHSPPKNAKLELTAEERDQRTLLIMQIARDTRPRDLEEFFSAVGAVRDVRIITDSRTGRSKGICYVEFWDEESVPLGLALNGQRLMGAPLQIQRTCAERNRAANSSVASTLGFVAPGNKGPTHVLVENLHPKIDEKMIRDIFESFGRIEKIDLEVDSNRENRGFATITFRNADDAQKSCEQLNNFELAGRCIRLSIKQESQAPAVKKEEASIHQRSLDDVGDRQGFSLGAGGRQQLMAKLAQGTGSGMELTASAQMAAQHAGHSQIPSIATQCFLLSNMFDPSKETEPAWDHDIREDVIEQCLAHGGALHVFVDKGSEQGNVYVKCPSIVIAHQAVSALHGRWFSGKVITANYVPVNSYHDLFPDAVHARIVLTTRGAAPVVPIVPMVPVVPPQGIANGYGAYGMMAPAHGAPPPPPPQQQGQYGGYGRY | not soluble |
| MDTLQFQKNPETAAKMSAYMKHQFVFAGIPAPERQALSKQLLKESHTWPKEKLCQEIEAYYQKTEREYQYVAIDLALQNVQRFSLEEVVAFKAYVPQKAWWDSVDAWRKFFGSWVALHLTELPTIFALFYGAENFWNRRVALNLQLMLKEKTNQDLLKKAIIYDRTTEEFFIQKAIGWSLRQYSKTNPQWVEELMKELVLSPLAQREGSKYLAKASE | soluble |
| MGSDKIHHHHHHACSISYKFNGSSIDYTKVKTISFENFPNRSAGFVWGPMENMFNTALQDIYMQQTRLKQVKRSGDLQLSGEITNYEAFNKGIGSDGYSSMVELRMTVRVNFVNSSNPTENMNGQQFSASREYNSNQQLSAVQDELVNQMIKEIVEQIFNATVANW | not soluble |
| MGSDKIHHHHHHMKSYLTPLALLVSSVFSTVAYAETQLFVTTSSTQDAPLHIVYPTGIRIGQAVQDGLQQLPLYNKTNNKEVMPIYWLGAALVDLENTAVLETKRQQVLSQLAQMGEATNDSRYITKLAQLAQFLRGIKLGQRVMQPLDIDAIRITESYNAIIEGKYQLVLPPRPSTITLVGAVTQTGNMPWQSQTSSKDYLKQAGLLENAETSFVWIIQPDGNAIRQPIAYWNYQAQDIAPGATLFVEFSSLFDGYANLNENIIELLKNRTL | not soluble |
| MGSDKIHHHHHHMNDVQQAINSDDIPLTDELVVSYLQDNPEFFNRNNSLMTGLRLNDEQRGTVSLVERQQQQLRQKVYGLEDEITQLMSVANHNEQLFVLYSDLYLRLLDCQSAEELLDCLHQATTELLSLSSFKLWLVSGNNTEVAHHSLSTNDCAGVMQNRLTNDEYYFGRLQESEQTLIFSKPCLGSVVLIKLTHDEQAVGFLAIGSEDAHHFDPRMDTLLLNQFKRLVAKLLHQQLSM | not soluble |
| MEGGFGSDFGGSGSGKLDPGLIMEQVKVQIAVANAQELLQRMTDKCFRKCIGKPGGSLDNSEQKCIAMCMDRYMDAWNTVSRAYNSRLQRERANM | not soluble |
| RSVAAPLVKLRKATQNIKEGNLDFVLDVEGTDEFSELCRDFEEMRRRLKESAEEKIAMDKENKELISNISHDLKTPITAVKGYVEGIMDGVADTPEKMDRYVRTIYNKTNEMDHLINELTFYSKIDTNRIPYTFSKLNVEDYFSDCAEEVGLELETRGIQLCYANYVDKDVLVIA | not soluble |
| MAHHHHHHMLKVSSKEHYAEIKKKAEDSLGLVVHFSATWCEPCTAVNEHLTKQAAEYGDNVVFAEVDCGELGDVCEAEGVESVPFVAYFRTPLVGDDRRVERVADVAGAKFDQIDMNTHSLFGEKGGNRGSAEGLCHSGRLPALPHEAARGRNVHHRHPISSALRLYWSAV | not soluble |
| MTSLSSPSPIQHTTSSFLNNFMPTPSLINLQQGYRNPDLGSQDLARLDASRHESIQKVSRKLSTYEEEKNLIENELEEIERTGARLLSIVEQKDNFLASRIRRFMEKSKELVGIETLLRLQLNKHNERIKDGLIDISAARGEESYLQKRFKDTDFLRKISARREIDYDKELSEIFTDDQFHRWVMFKKATLQLLQTESSVSYYIRESNAKLDALHLAPRGTSA | not soluble |
| MGSDKIHHHHHHMIREVKFESQDRRIKQIIAALNENGIKDIEEANAICEAAGLDPYKTCEETQPICFENAKWAYVVGSAIALKKGCKNAAEAAEAIGIGLQAFCIPGSVADDRKVGIGHGNLAAMLLREETKCFAFLAGHESFAAAEGAIKIAAKADKVRKEPLRCILNGLGKDAAQIISRINGFTYVQTEFDYFTGELKVVREIAYSDGPRAKVKCYGADDVREGVAIMWKEGVDVSITGNSTNPTRFQHPVAGTYKKERVLAGKPYFSVASGGGTGRTLHPDNMAAGPASYGMTDTMGRMHSDAQFAGSSSVPAHVEMMGFLGIGNNPMVGCTVACAVDVATALSK | not soluble |
| MAVGTEESDFEGWAFPFPGVMLIEDFVTREEEAELVRLMDRDPWKLSQSGRRKQDYGPKVNFRKQKLKTEGFCGLPSFSREVVRRMGLYPGLEGFRPVEQCNLDYCPERGSAIDPHLDDAWLWGERLVSLNLLSPTVLSMCREAPGSLLLCSAPSAAPEALVDSVIAPSRSVLCQEVEVAIPLPARSLLVLTGAARHQWKHAIHRRHIEARRVCVTFRELSAEFGPGGRQQELGQELLRIALSFQGRPVLEHHHHHH | soluble |
| MKMDRQAQFRAREALIFEVAEQLLLENGEAGMTLDALAAELDLAKGTLYKHFQSKDELYMLLIVRNERMLLEMIQDKQKSFPEHLAFFMLHHLHHPERTVMFHQIEERLSTTGQGIYDLFQELYQVRKQRLRIIINMTEIYLQEIQSTMTVRDYLAAIWSLTHGAAAILNSSFYQRYLGSRDTLRIAYIDQALAIPKHMHEQYV | not soluble |
| MRPEELTKRFNEFSLWMTEEGVEQMSSYRNTNWEALKTELGKLPTLRHSCKNHVPQLVKEFCLEKRRYGVNPMYVHFLFCYYKKNIEDTRGRLEDDKETLEEIQRTHDELNVKFEELNKVKTFIKKQKESKGNVYLPNEYTEKHRLQNTIDNLKDKIQILVSTRNEQLWDFDNIPDGFQPMLELHHLKKDQVVYFVEKYLQRYTLGNKHKEIQLIVGKGSHSIDNDSAIQRKIRRNYAENVRSHPKNYGILLLKVP | not soluble |
| MGSDKIHHHHHHMEIKILVDNTAKGKFLAQSGFSAIIKDEDSKILFDCGQNAHVFENNLKLMGEDDDFDAVIFSHGHYDHTDGFNYFIEKYGENLDVPIYIHKSAFVDRYHGERYIGIDENIKNFLKNYKNLKLIEDPFKISENLIISGTIPRTNFYERENFEMIENGQKVDDIIIDDMFVIVKDIIISGCTHSGLINCITHAKTLKEVNGIIGGFHMGTASENYINQVKNYLKTQNFRLVSPVHCTGFNATKELSDISGFKFGHVGSVFEI | not soluble |
| GPGSMPKSKRAKIVPLTKTQAKTREDKDKLIERIREALEDYSDVYTFQLHNIRTNILQQIREERAGDSRIFLGNNKVMMIAIGRDEESAQRQNLHKLSPFLTGLCGLLFTNLSKKEVKEYFATVGAPVYARTGQTATESLVLKGGPLPQFPHSMFDHLAKLGLPIKLDRGVIVLLQDTTVCEPGDTLSAEAAQLLKLFGVQSAKFKMDLTAHWTSGVAKKVSSSASKRSEK | soluble |
| MLDDLPGVADNAKKILFDMKCTTVIDDCNVHLRDVLNLLEDEMHSFRLSSIEANDLDKLYDTFYYYGKKEQLIEFLLDQMTNAINFKQADKDFLIYSWLVEKLTEEQICEMLARINENTQYHWNNNLNSFVDEFVAYYKETNGIDLRINYLGAIYTNLKILSDEYTLSISDYELIFKFFEDIIESHSETIFDFQRKYKKDIETNFGNSLENFPKLNKLLFE | not soluble |
| MSLKPNYLEERICLNVLANSVENAQACYEAAEGHVVLGVLSKNYETDEAAIDDMKKYQAATNNALSVGLGAGDPNQSQMVARLSEVLQPQHVNQVFTGVGASRALLRQDETVINGLVSPTGKVGYVNIATGPLSSGAPAAEVPIETAIKLLKDMGGSSIKYFPMKGLAHKEEYQAVAAACAKYDFYLEPTGGIDLENFEEIVQIAVDAGVKKIIPHVYSSIIDQETGDTRTEDVKTLLTMMKKTLNK | not soluble |
| PELADPTPYDIFGIPKAGSGNPKLDKKSLKKKYHRYVKLYHPDHSDNIQIFSSEKVTNSDSKSPLLLTSSEKLHRFKVISQAYDILCDPKKKIVYDTTRQGW | not soluble |
| MFQIGEHNMILIYKLTLTKLTEDELKKDFATIPSWATHLDLSNNRLGETSNEELIRVFAKIPGWISHIKLRFNNLGQKNGKDLAKAFAKIPISVTTLDLGSNQLGKKSGEELANAFAGIPTSVTRLILSQNELYKRTGGELATAFAKIPSSVTHLVLVNNGLGEKNGKELATAFANIPSSVTTLDLALNDLSKIKSTELAVIFTKIPTSVTQLDLSHNNLNKKSGKNLAKIFANIPTSVTNLNLSCNELGKKSGKGLAAAFAKIPTSVTDLNIEDNDLDNRTGKELAMAFAHIPAFVNTLRLGDNNLGNKSGEELAEIFAKIPLSVTSLDLRYNELGKRNGKELAIAFAKIPSSVTNLNLKFNHLGKITGEELAMAFANIPTNVDSLVLANNELGAKSGEELAKIFSKIPASITSLNMGNDWFAVIEKLSQQKMVLSTITHVVIDYSSAQEHSAKLKLLATVFPNLNKVTFMDIHGNNALAGQNPIEEAKWLKLCGIKNSVPSLLSQALFFVAKNKEHRSIQDYPSLLPKELTDSISSLLKC | not soluble |
| MGSDKIHHHHHHMKTPWLVNGKLANLYLLYGTERHLLEEWEREIVKAALPDGERFDYMKIDLNDQPLDAVLDEAETVPFLSDYRVVIAKPATFLTGAKDKKTHNVERLAEYIVQPADYAVVVLIVEAEKLDERKTIVKRLKDRAVILEAKKPTTEELFRFVMDAVNDKGYRMERPAIERLIFLTGEMWATLTRELDKLMLYAGDHPTIELEDVNLLVPRTLEDNVFQLTDYLMKRQLEPAIRLIRDLEKQGQEVLALLGLMARQYRMMLLSKRLAEQGYGERQIASKVGAHPYAIKLALQAGKRFTFAQLEQALVAITTTDEGMKTGRGDKRILFDALIVRLATL | not soluble |
| GNWAEITDEISKIYQDNQYKIRQINDVDAVSDKRREALQALFEHTGRNVIVYYSAWLENGRRFSGQSTDFSVNDTDKNSFMTALHKLDQSKGLDLILHTPGGDVAATESLVDYIHALFGQDFRVIVPQLAMSAGTMIALSSKEIVMGKHSSLGPIDPQFNGLPAHGLLEEFEQAKKEVSENPQTAHIWQVILNKYNPTMLGEAKKAIQWSNSMVKQWLEKGMFLDEPDKEEKATRAIKELADHSVTLAHNRHISVSKALELGLNIKELESDPKLQDLVLTLHHLSVIAAQRGPLIKFVVNHDNRGTF | not soluble |
